Each block holds one binder with its values, some of them ahead of it.
Key:
mouse serum albumin [1] = target: T1, mouse serum albumin (mouse, UniProt P07724 25-608); assay: SPR, SA coupled to the chip, scFv as analyte
T1 construct: Amine-coupled to the SPR chip; also called mouse SA; rodent SA
Experimental: (§1) Affinity of the humanized scFvs to serum albumin (SA) of the different species was determined by SPR measurements using a MASS-1 device (Sierra Sensors). SA was directly coupled to a high capacity amine sensor chip (Sierra Sensors) using amine coupling chemistry. […] The assay was run twice at different pH values: once in a 1×PBS-Tween buffer at pH 5.5 and another time in a 1×PBS-Tween buffer at pH 7.4.

rat serum albumin [2] = target: T2, rat serum albumin (rat, UniProt P02770 25-608); assay: SPR, SA coupled to the chip, scFv as analyte
T2 construct: Amine-coupled to the SPR chip; also called rat SA; rodent SA
Experimental: as §1

[3] = target: T3, marmoset (purified) serum albumin (marmoset); assay: SPR (MASS-1), SA amine-coupled, scFv analyte, pH 5.5
T3 construct: Amine-coupled to the SPR chip; also called marmoset SA
Experimental: as §1

cynomolgus serum albumin [4] = target: T4, cynomolgus serum albumin (cynomolgus, UniProt A2V9Z4 25-608); assay: SPR; upper end tied to cynomolgus SA at pH 5.5 by the KD values of Table 3
T4 construct: Amine-coupled to the SPR chip; also called cynomolgus SA
Experimental: as §1

human serum albumin [5] = target: T5, human serum albumin (human, UniProt P02768 25-609); assay: SPR; lower end tied to human SA at pH 5.5 by the KD values of Table 3
T5 construct: Amine-coupled to the SPR chip; also called HSA; human SA
Experimental: as §1

human serum albumin [6] = target: T5, human serum albumin; assay: SPR (MASS-1), SA amine-coupled, scFv analyte, pH 5.5
Experimental: as §1

cynomolgus serum albumin [7] = target: T4, cynomolgus serum albumin; assay: as above
Experimental: as §1

human serum albumin [8] = target: T5, human serum albumin; assay: SPR (MASS-1), SA amine-coupled, scFv analyte, pH 7.4
Experimental: as §1

cynomolgus serum albumin [9] = target: T4, cynomolgus serum albumin; assay: as above
Experimental: as §1

mouse serum albumin [10] = target: T1, mouse serum albumin; assay: SPR (MASS-1), SA amine-coupled, scFv analyte, pH 5.5
Experimental: as §1

rat serum albumin [11] = target: T2, rat serum albumin; assay: as above
Experimental: as §1

mouse serum albumin [12] = target: T1, mouse serum albumin; assay: SPR (MASS-1), SA amine-coupled, scFv analyte, pH 7.4
Experimental: as §1

rat serum albumin [13] = target: T2, rat serum albumin; assay: as above
Experimental: as §1

human serum albumin [14] = target: T5, human serum albumin; assay: SPR; species not given, human SA taken from Table 3

- binding result (mouse serum albumin [1]): no binding
- binding result (rat serum albumin [2]): no binding
- Kd [3]: 0.674 nM
- koff [3]: 0.0026 s⁻¹
- kon [3]: 3.86e+06 M⁻¹ s⁻¹
- fold improvement of affinity of the STR graft over the CDR graft 19-01-H04-sc01 (cynomolgus serum albumin [4]): 20 to 300 fold
- fold improvement of affinity of the STR graft over the CDR graft 19-01-H04-sc01 (human serum albumin [5]): 20 to 300 fold
- Kd (human serum albumin [6]): 0.684 nM
- koff (human serum albumin [6]): 0.000308 s⁻¹
- kon (human serum albumin [6]): 450000 M⁻¹ s⁻¹
- Kd (cynomolgus serum albumin [7]): 0.387 nM
- koff (cynomolgus serum albumin [7]): 0.000231 s⁻¹
- kon (cynomolgus serum albumin [7]): 598000 M⁻¹ s⁻¹
- Kd (human serum albumin [8]): 1.07 nM
- koff (human serum albumin [8]): 0.000411 s⁻¹
- kon (human serum albumin [8]): 384000 M⁻¹ s⁻¹
- Kd (cynomolgus serum albumin [9]): 0.711 nM
- koff (cynomolgus serum albumin [9]): 0.000302 s⁻¹
- kon (cynomolgus serum albumin [9]): 424000 M⁻¹ s⁻¹
B1: 19-01-H04-sc02 (scFv, V domains shown)
VH: EVQLVESGGGLVQPGGSLRLSCAASGFSLSSNAMGWVRQAPGKGLEYIGIISVGGFTYYASWAKGRFTISRDNSKNTVYLQMNSLRAEDTATYFCARDRHGGDSSGAFYLWGQGTLVTVSS
VL: DIQMTQSPSSLSASVGDRVTITCQSSESVYSNNQLSWYQQKPGQPPKLLIYDASDLASGVPSRFSGSGSGTDFTLTISSLQPEDFATYYCAGGFSSSSDTAFGGGTKLTVLG
notes: also called clone 19-01-H04 STR graft; humanized scFv

- Kd [3]: 3.77 nM
- koff [3]: 0.00128 s⁻¹
- kon [3]: 338000 M⁻¹ s⁻¹
- Kd (mouse serum albumin [10]): 4.86 nM
- koff (mouse serum albumin [10]): 0.000933 s⁻¹
- kon (mouse serum albumin [10]): 192000 M⁻¹ s⁻¹
- Kd (rat serum albumin [11]): 18.7 nM
- koff (rat serum albumin [11]): 0.00437 s⁻¹
- kon (rat serum albumin [11]): 234000 M⁻¹ s⁻¹
- Kd (mouse serum albumin [12]): 32.2 nM
- koff (mouse serum albumin [12]): 0.00469 s⁻¹
- kon (mouse serum albumin [12]): 146000 M⁻¹ s⁻¹
- Kd (rat serum albumin [13]): 231 nM
- koff (rat serum albumin [13]): 0.0245 s⁻¹
- kon (rat serum albumin [13]): 106000 M⁻¹ s⁻¹
- fold improvement of affinity of the STR graft over the CDR graft 23-13-A01-sc01 (human serum albumin [14]): ~3 fold
- Kd (human serum albumin [6]): 0.373 nM
- koff (human serum albumin [6]): 0.000115 s⁻¹
- kon (human serum albumin [6]): 307000 M⁻¹ s⁻¹
- Kd (cynomolgus serum albumin [7]): 0.75 nM
- koff (cynomolgus serum albumin [7]): 0.000253 s⁻¹
- kon (cynomolgus serum albumin [7]): 338000 M⁻¹ s⁻¹
- Kd (human serum albumin [8]): 0.6 nM
- koff (human serum albumin [8]): 0.000194 s⁻¹
- kon (human serum albumin [8]): 323000 M⁻¹ s⁻¹
- Kd (cynomolgus serum albumin [9]): 1.3 nM
- koff (cynomolgus serum albumin [9]): 0.000433 s⁻¹
- kon (cynomolgus serum albumin [9]): 334000 M⁻¹ s⁻¹
B2: 23-13-A01-sc02 (scFv, V domains shown)
VH: EVQLVESGGGLVQPGGSLRLSCAASGFSFSSSYWICWVRQAPGKGLEWVGCVFTGDGTTYYASWAKGRFTISRDNSKNTVYLQMNSLRAEDTATYFCARPVSVYYYGMDLWGQGTLVTVSS
VL: DVVMTQSPSSLSASVGDRVTITCQASQIISSRSAWYQQKPGQPPKLLIYQASKLASGVPSRFSGSGSGTDFTLTISSLQPEDFATYYCQCTYIDSNFGAFGGGTKLTVLG
notes: also called clone 23-13-A01 STR graft; humanized scFv

Source: patent publication US20200325214A1 (NUMAB THERAPEUTICS, published 2020)
